The values that follow are results of earlier work, collected in publication PMC3100173.

The data set concerns the target OmpF (Escherichia coli) (UniProt P02931).
UniProt P02931, sequence (P02931 23-362): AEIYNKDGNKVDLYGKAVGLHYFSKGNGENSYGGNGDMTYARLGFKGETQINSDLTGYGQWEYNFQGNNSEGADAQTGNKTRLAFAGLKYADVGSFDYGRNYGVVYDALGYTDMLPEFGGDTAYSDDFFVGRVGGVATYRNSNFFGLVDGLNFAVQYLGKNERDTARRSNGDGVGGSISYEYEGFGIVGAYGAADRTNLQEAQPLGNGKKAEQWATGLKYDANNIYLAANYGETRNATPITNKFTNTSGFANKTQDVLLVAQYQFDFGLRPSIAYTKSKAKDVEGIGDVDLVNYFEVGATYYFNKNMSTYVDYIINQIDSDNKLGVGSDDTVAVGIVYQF

Usually Kd stands for the concentration at which binding is half-saturated. With Colicin N (from UniProt P08083), the Kd is 200 µM.
